B1: catalase (enzyme, UniProt P00432 1-527, looked up)
chain: MADNRDPASDQMKHWKEQRAAQKPDVLTTGGGNPVGDKLNSLTVGPRGPLLVQDVVFTDEMAHFDRERIPERVVHAKGAGAFGYFEVTHDITRYSKAKVFEHIGKRTPIAVRFSTVAGESGSADTVRDPRGFAVKFYTEDGNWDLVGNNTPIFFIRDALLFPSFIHSQKRNPQTHLKDPDMVWDFWSLRPESLHQVSFLFSDRGIPDGHRHMNGYGSHTFKLVNANGEAVYCKFHYKTDQGIKNLSVEDAARLAHEDPDYGLRDLFNAIATGNYPSWTLYIQVMTFSEAEIFPFNPFDLTKVWPHGDYPLIPVGKLVLNRNPVNYFAEVEQLAFDPSNMPPGIEPSPDKMLQGRLFAYPDTHRHRLGPNYLQIPVNCPYRARVANYQRDGPMCMMDNQGGAPNYYPNSFSAPEHQPSALEHRTHFSGDVQRFNSANDDNVTQVRTFYLKVLNEEQRKRLCENIAGHLKDAQLFIQKKAVKNFSDVHPEYGSRIQALLDKYNEEKPKNAVHTYVQHGSHLSAREKANL
notes: Bovine liver catalase is surmised; the source is in the supplement
B2: alcohol dehydrogenase (enzyme, UniProt P00330 1-348, looked up)
chain: MSIPETQKGVIFYESHGKLEYKDIPVPKPKANELLINVKYSGVCHTDLHAWHGDWPLPVKLPLVGGHEGAGVVVGMGENVKGWKIGDYAGIKWLNGSCMACEYCELGNESNCPHADLSGYTHDGSFQQYATADAVQAAHIPQGTDLAQVAPILCAGITVYKALKSANLMAGHWVAISGAAGGLGSLAVQYAKAMGYRVLGIDGGEGKEELFRSIGGEVFIDFTKEKDIVGAVLKATDGGAHGVINVSVSEAAIEASTRYVRANGTTVLVGMPAGAKCCSDVFNQVVKSISIVGSYVGNRADTREALDFFARGLVKSPIKVVGLSTLPEIYEKMEKGQIVGRYVVDTSK
notes: The tetramer mass fits S. cerevisiae ADH1; this is surmised, the source is in the supplement; also called ADH

Target: the molecule itself
Test: SEC + native MS; nanoflow SEC-nMS of reference proteins: 50 nL of 1 mg mL^-1 protein injected, 200 um ID capillary SEC column, 0.5 uL min^-1, eluted with 200 mM AmAc; isCID varies by protein

Row | Protein | stoichiometry N
1 | B1 | 4
2 | B2 | 4

Reference: publication PMC12177876, “Nanoflow Size Exclusion Chromatography–Native Mass Spectrometry of Intact Proteoforms and Protein Complexes” (Analytical Chemistry, 2025)
